Earlier results in publication PMC3061301.

Target: PTP-BL (Mus musculus) (UniProt Q64512)
Assay: surface plasmon resonance

Chain of UniProt Q64512 (Q64512 whole entry): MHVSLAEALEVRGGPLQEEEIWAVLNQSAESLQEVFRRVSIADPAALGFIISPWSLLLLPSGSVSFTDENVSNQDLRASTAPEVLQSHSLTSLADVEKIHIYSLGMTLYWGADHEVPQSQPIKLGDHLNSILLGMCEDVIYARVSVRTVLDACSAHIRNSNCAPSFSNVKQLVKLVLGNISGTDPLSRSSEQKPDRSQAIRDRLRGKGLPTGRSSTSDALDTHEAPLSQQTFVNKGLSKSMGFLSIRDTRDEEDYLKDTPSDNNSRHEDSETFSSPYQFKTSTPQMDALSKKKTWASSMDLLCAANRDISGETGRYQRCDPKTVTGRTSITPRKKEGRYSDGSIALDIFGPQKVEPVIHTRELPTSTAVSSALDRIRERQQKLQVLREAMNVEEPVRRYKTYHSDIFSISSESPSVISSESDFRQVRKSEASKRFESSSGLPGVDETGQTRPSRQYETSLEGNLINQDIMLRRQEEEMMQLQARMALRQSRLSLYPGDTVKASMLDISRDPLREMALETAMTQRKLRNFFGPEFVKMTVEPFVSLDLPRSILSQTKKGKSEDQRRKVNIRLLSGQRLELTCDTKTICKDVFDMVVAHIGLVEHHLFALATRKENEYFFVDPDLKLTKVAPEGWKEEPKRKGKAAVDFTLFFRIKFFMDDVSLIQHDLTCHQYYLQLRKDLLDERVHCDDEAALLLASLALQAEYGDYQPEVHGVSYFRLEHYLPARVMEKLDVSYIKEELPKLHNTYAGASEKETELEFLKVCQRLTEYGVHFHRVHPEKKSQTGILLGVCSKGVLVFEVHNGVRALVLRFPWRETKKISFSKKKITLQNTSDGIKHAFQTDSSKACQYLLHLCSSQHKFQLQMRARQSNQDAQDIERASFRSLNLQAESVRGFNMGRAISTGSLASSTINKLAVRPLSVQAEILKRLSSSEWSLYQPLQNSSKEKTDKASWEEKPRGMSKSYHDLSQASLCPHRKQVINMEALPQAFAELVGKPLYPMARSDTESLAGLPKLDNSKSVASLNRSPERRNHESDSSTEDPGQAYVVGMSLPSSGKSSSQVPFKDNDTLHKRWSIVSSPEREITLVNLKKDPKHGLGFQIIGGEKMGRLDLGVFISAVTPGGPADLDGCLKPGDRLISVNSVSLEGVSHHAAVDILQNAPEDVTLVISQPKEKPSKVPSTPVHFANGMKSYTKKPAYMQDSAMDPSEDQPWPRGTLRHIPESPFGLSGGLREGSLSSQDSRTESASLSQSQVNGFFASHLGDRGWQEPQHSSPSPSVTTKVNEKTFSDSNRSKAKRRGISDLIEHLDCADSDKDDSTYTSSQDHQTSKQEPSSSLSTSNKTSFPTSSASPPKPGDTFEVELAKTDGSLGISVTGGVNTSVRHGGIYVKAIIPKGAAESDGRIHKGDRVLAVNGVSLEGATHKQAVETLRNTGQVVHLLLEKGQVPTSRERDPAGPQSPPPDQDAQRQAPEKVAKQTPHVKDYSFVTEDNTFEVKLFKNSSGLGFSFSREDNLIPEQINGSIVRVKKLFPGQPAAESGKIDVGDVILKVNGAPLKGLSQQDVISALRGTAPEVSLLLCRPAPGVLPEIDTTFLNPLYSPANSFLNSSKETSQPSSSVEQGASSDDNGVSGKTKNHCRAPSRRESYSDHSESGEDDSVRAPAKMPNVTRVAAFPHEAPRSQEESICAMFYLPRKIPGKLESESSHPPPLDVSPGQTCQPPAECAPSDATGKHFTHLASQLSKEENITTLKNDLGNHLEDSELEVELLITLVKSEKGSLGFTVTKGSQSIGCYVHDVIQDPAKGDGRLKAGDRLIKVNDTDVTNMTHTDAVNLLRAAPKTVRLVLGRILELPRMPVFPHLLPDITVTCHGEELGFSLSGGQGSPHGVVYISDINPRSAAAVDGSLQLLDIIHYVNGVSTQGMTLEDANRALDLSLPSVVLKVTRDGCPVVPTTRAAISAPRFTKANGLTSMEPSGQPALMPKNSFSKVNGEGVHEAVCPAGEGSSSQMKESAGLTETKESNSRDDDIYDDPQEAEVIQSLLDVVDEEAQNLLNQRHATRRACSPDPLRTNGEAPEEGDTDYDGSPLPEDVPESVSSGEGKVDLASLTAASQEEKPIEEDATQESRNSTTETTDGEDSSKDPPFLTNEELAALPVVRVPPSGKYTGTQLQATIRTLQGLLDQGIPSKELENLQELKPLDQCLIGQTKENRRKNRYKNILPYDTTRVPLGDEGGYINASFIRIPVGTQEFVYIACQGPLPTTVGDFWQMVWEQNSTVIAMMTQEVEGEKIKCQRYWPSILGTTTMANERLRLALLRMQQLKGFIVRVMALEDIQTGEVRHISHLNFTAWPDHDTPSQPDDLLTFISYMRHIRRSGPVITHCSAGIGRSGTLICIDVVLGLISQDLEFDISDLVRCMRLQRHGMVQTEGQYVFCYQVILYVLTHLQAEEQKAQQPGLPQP

Kd: 8 nM
Substance: APC C-terminal 19 amino acids (from UniProt P25054)
